The values below come from the domain aggregation screens of Martell et al. (2025).

The nature of the series: soluble fraction after stress (log2 fold change); higher = more stays soluble; pooled small domains, quantitative proteomics. To be noted: stress: pH 4. In a few lines: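 Pooled custom libraries of small protein domains were stressed at pH 4 and then measured by high-throughput quantitative proteomics. The fold change in the amount of each domain that stays soluble after the acid stress serves as a measure of aggregation propensity. Fold changes are given on a log2 scale, and higher values mean more of the domain stayed soluble.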

Bounds are passed on as bounds.

“HMLENIVFTNKFKNKRLDVLLVDMKLVSSRQKAVSLIMRGNVFVEEERADKPGKIIKLNQTISLKK”: the “soluble fraction (log2)” value was no less than 0.43. Next, “HMLERPLKLKSHYVSAINEKVAVQFQAGEERKSIMGTLTEVNQDTIVIDDRGSVTEIPFKSIIRAKTVF”: -0.163. Next, “HMLESPVEAIIRQIKQLITNGKLKPGDRLPAERLLAENFGVGRGYVREAIMKLEFFGLLKTSPQSGTYVAG”: -0.257. As to “HMLETIDIFKVTGGEPFLSKDFLEILDLAIEKDLAKNITLMITTNASKFVKKILDKFIHFKRVEFTVS”, the “soluble fraction (log2)” value is -1.05.

With “HMLFGKKYLGKVPNDASGRISLWNDIVKHHQELQNIRAIENFTSDNVTVAQGDTKKAVVVTDYVT”, the “soluble fraction (log2)” value was -0.152. Next, “HMLFQGDTPAENIILEILSKNGTTASDSIIKQSGLSVSDFNQAATMLEIKGLISNNGGNIWSL”: -0.254. Next, “HMLFVKLSDAQRSMFGAKLARDARIQSEYAQKLPSENYEVFGKALADMLLDETHFKTFYPLLVEYGYTQPK”: -0.649; “HMLGDIYISIPRAKLQAEEYGHSFKRELAFLAVHGFYHLLGYDHQTKEEEEVMFGKQEEVLAEFDIKR”: -0.245; “HMLGKNEAKEYKVAYGDIGKMPALIMGLVPLPKPPVVDERLRTLYVTATPEQHREIEAIMNRI”: -0.306. Next, “HMLGKSNAERQLDLILGAIERSITGVSRSKLMQAYHLDSRGATAAFETLEQRGLITRSKSGRTELLIPTRV”: 0.126; “HMLGWEDVIQFEEVKGYGQHIWRDGNHLYYVTEEGGIAPQRVVYELPNELFALLESGERTQLEILSKLQ”: -2.35. On to “HMLHNEFINDRIQSAINNLSEHFKIVIILRDIQELSYEEISNIVEVPLGTIKSRINRARIQLQAELLDL”, for which the “soluble fraction (log2)” value was determined as 0.103. “HMLILDTDGRYVIKRGDSLSEILEKIANGSNINLNLLKRAFVTANPKAFKRANPNWMYANAR”: the “soluble fraction (log2)” value is -0.145.

As to “HMLIPTISVTKEGQLRFENIPVSWEELGTRLRDVSDLDKIKIYADAESDALTISEIMKTAANVGIVQFVLV”, the “soluble fraction (log2)” value is -1.13. “HMLIRKGVVSFFNDAKGYGFIKDLVTQESAFVHVNSLSETIKEHDKVTFEVEMGHKGANAVNVKLVK”: the “soluble fraction (log2)” value was -0.72. With “HMLIVLKPNVSQEEIDHIVDKIRSLSLEPHVSTGVQRTIITVIGDEDVIREQPLEALAGVESVKSILKP”, the “soluble fraction (log2)” value was -0.144.

Take “HMLKGTVKWFNESKGFGFIEQEEGKDVFVHYSAITGSGFKTLNEGDKVQFEIVDGPKGPAAANVSK”: the “soluble fraction (log2)” value is -0.927. Next, “HMLKKGDQVYIISGKDKGKLGVVSQIVSEERILVDGINLAKKHVKPNPNKNETGGVVEKEMPIHASNVMI”: -0.702; “HMLKLTDRQKVILSILMSDGEKTASWIASQLGVGLRSVQLDLSYLRNNGFIKKASKSTHSAWIVLKK”: 0.205. As to “HMLKPIHKDWSPNGDAKEILLKAGITEEFIQKELPEFIMYWSERNEESDIWNSKFIAHIRRRWGRFS”, the “soluble fraction (log2)” value was -1.23. On to “HMLKPVVLLGARGLTDAVEKEVERALDEHGLIKIHVPSDDREERDEIYTTLADKLNAARIQAIGKMLVLW”, for which the “soluble fraction (log2)” value is -0.00783. In the case of “HMLKSGSAVAQARDVILEKGVPVHINEILDALGKGDTREAKASLTSSLAAYVRRGEIFTRPAPNTFGLVEL”, the “soluble fraction (log2)” value is -0.378. Turning to “HMLKTADAIASVLLTRIQAGEFSAGRLPAERALSEAFSTTRITLREALGKLEAQGMIYRELRRGWFIA”, the “soluble fraction (log2)” value was -1.3.

For “HMLLFNPGEVLKGFVLQSGTNNRVLLQIGDSRVIADTQTPLKAGEQLVLRVEETGPKTILQILG”, the “soluble fraction (log2)” value is 0.0206.

As to “HMLLGDYIQKLRNQRGLSQQEFADKLGIGRSTLANYEQNKRSPDYETLIEISKFFNVSIDELLGV”, the “soluble fraction (log2)” value was -0.342. For the sequence “HMLLLASTPAEQTIIQLLAEGWRDGDQLQQRSHLSAADFSTALTMLEVNGSIKPLGANHWALTH”, the “soluble fraction (log2)” value was -0.185.

“HMLLPANLTKSQRNIAERVARGQSNLEIAADLNITERTVKAHLTSIYEKTKTGNRLNLALLINLG”: the “soluble fraction (log2)” value was -0.17.

As for “HMLLPGEELRVMIIQEGKEYGQGVGYLDDGTMVVVEDGQRALNRTENVVVTKVLQTTAGRMIFAK”, the “soluble fraction (log2)” value is -0.975. Next, “HMLLQENRKLHSKLEELQLISRAKAVLIEYLKLTEPQAHRYIEKQAMDLGLTRPQVALNILKTYE”: 0.21; “HMLLQTAVISTDIVNMRAEPTTNSSVIRKLTKGSDITINQEKDGWYKISDDQGNSGWIVTWAAKPT”: -0.0639; “HMLMDVRVPDIIGVEINQAKEILTASSLLIGKITYVSLPEIEKDLVIETSVLAGRRVSAGTVIDITVNKE”: -0.87. Next, “HMLMKPQKTRDVLRYLKSIGWVRLRGGQGSHEIWGLPDGSIRAVIPAGHREISAGVLMQLKRAGVDVPTQW”: -0.0803. Take “HMLMLTPGQIAQTLDVSTATVRRWSARYARHLSPNTPGKKRSYTVDDLAVLTRVRDLSATGTPLAQIDQAL”: the “soluble fraction (log2)” value is 0.151. Take “HMLMLTPGQVSNSLNVSTATVRRWSARFARHLSPQPPNRKRSYTPDDLATLARVRDLSASGTSLAQIDIAL”: the “soluble fraction (log2)” value was -0.29.

With “HMLMRSPDFLIGWFQNLVAKRETFNDQVQAKNLIEAGKQHIQGEDFDRLLEVNRRLFSLLPQREQE”, the “soluble fraction (log2)” value is -1.27. Take “HMLNAPFGFRIEDDTLIPIPEEAKVVRQIFRYYLQGMGFGKIAQELNGQDVPGKPWGKERIKYILSNEKYI”: the “soluble fraction (log2)” value was -0.0934. With “HMLNERQKKIIKILKDNKNWMTGKELSEFLNVSDRTIRSDIEYINRYNNALIESNVKNGYHLNFE” the figure was -0.0338; with “HMLNIVTIFEEQFGRPLSPIELNIIKDWKESDYSDEMIVKALKEAVKSQVLNFRYVEGILNNWAKNG”, -1.08; with “HMLNLNEAEKSIYVLIKKNESNNLNKVKEDSNLSNKAWDKGIKNLVKNNLVKVVKSNEGLFIQLV”, 0.196. Regarding “HMLNLNILTDKEKFIAKLISRGLSDSLIAKELYISISTVRSHVNSIYGKTNIKNRSHLASSFLYFELGNLL”, the “soluble fraction (log2)” value was -0.0771. Next, “HMLNPMILLTKGGENIRLDKFLSSHLSDLSRTQIQKMVKEGLVLVNGEPSKVGLKLDGSETIQYTLPK”: 0.254. With “HMLNSISIKTNKKIDFLEKNEHLVNFVYEKETMEHIYNLSYENKKDLQELQNKLSDIEGIIKINTDL” the figure was -2.18; with “HMLPDVSITGHIFIRSGSRLNRIFVGESTYHVGDMLDGKWLIESINSDSLELRSGTQTTELPL”, -0.066; with “HMLPDYLIELKKKADSGDAVSQNDIGNIYLYGLPRVNIYPDEKNIGIGIDYLYKAAWQDQVNAMTTI”, -0.397. Next, “HMLPELQPGQTFSARIQQALPDNTYRALVAGKQLTLQLPEGAKAGDELELVVLDRSARVIIARQVD”: 0.336.

Take “HMLPGERFKVKIAQAGKEKKQGIGYLNDGTMVVIENGIEKVGEEVEAVVIKVIQSSAGKIIFSEVAK”: the “soluble fraction (log2)” value stood at 0.0394. “HMLPGKEIPLPEFLREAFARNEPALENFQNLAPSYRRQYILWITSAKTPETVQKRISESIGLLKENRKLGM”: the “soluble fraction (log2)” value was -0.0786. For the sequence “HMLPGLGPIERAQFMLQAIPGISPTRSAALIDKFGSIAGIAQASIKDIQTIEGIGKKTATTLYEVLNAG”, the “soluble fraction (log2)” value is -0.223. Next, “HMLPISGDDRDALDMAALILKQYDSLPILKEFANVVTKLQTVLDGVVSNSIEARRQMIQFEE”: -0.48; “HMLPITPGQKYKFVVKSAEEAAAIIRDKLGEMAQVISVRQVEGEGLARFLKSPKLEIIAQVPVA”: -0.349. Regarding “HMLPLGSNEYETAVIKHLASGVQDADEIQRLTGIDQTSLNTALTMLELAGTIRPLGNNHWTL”, the “soluble fraction (log2)” value came to 0.22. Next, “HMLPLHFIEIVSLKKIDTLTKRKELINYAFSKNEKTYIYKLAFKKKSELDNLYKEINLFNEIINIDIRHS”: -0.943; “HMLPLPRFASLDSSEANLRAGPGKDYPILWVYQRKGLPVEIIQEFDTWRRIRDRDGTVGWVQQNLL”: -0.568.

“HMLPNIKSEMEILGDNAKARLEAAELWSKKYLSNEAYDTMSKLATTADGVKAIEEIMNITKS”: the “soluble fraction (log2)” value is -0.274. Turning to “HMLPSELLAQQRIVVQPGHNLWRIARATYGRGARYTVIYQANREQIADPNRIFPGQVFALPAA”, the “soluble fraction (log2)” value is -0.227.

For the sequence “HMLPSMENWLGELSFWQTPWWERRDFSTFDNIAQSKEELDEFMSRDDNGAILERMQDPINTIEAE”, the “soluble fraction (log2)” value was -0.682. For the sequence “HMLQGKVSFFNDEKGYGFIKDNNSKDSYFVHINKVEGEIAEGDKVTFELEKGPKGLVAANVKR”, the “soluble fraction (log2)” value is -0.145.

On to “HMLQIGDEEFIENIVKQVIDENQKAVDDYKKGKEKVMAFLIGQVMKKTKGKVNSEIVEKTIKKL”, for which the “soluble fraction (log2)” value was -0.565. Next, “HMLQKEVHQQIQQALRALPYHQRTAIVLYYYEGMSVKEIAQATGSMQGTVQSRLFFARKKLRPILESILKK”: -2.39; “HMLQQNRAVEAEQLARKGLSYAQSNIQQAALWRLVAEATEQQGKVDAALNAKNKAMQLEMAG”: 0.353; “HMLRTLSTSEFAEAIGISESSARRLADSGDLRIRRTKGGHRKIPAEEAIRYAREIQATVVRPDLLGLST”: -0.151. Turning to “HMLRVVSTRQAFDIVRGWADAHPQDPEHNKTLDELEELAKKEVWDDWSRTNEIAERLNALLVSIGANVRTA”, the “soluble fraction (log2)” value was -0.314. With “HMLSDEEKMAALNEQARQRGFTISPGVLPYLITHYQRDMHSLSMILDALDRYSLQTKRTITLPLLHDLLQQ” the figure was -0.228; with “HMLSKEFRFFTYLLESYAQHKNTTAGAVLKTLDEKGLTDFVYKMYDLYHVEAIENAYMDLDSLIATGKPA”, -0.989; with “HMLSKGDRVSWDTPQGRTQGEVVEKKTKDFEHDGQKFTASDDDPAFIVKSEKSGAEAAHKGSALNK”, -0.0554. Next, “HMLSLGIMEADMLKTGKHTISGISKATPEQRQKIDSDIEELKKKYPEKNITSKVENDNLIVESGVTAP”: 0.0639; “HMLSNKIEQLRKEKGYTFAKLSELSGISTGRLSDLATGKRNNPTMDTLIKLADALDVTLDELVGR”: -0.328; “HMLSNYIGMTLGEAKRNLGQGVNITVNGPNNDNAEVTGQDPTSGSSFDKSKDTITLTT”: 0.225. Next, “HMLSPAQSLLLRTAARRPDGRVIPPDTLRGGARVKVLTSLLQRGWIEPVDGGHVLTDAGYAAIG”: no less than 0.43.
